In experiment [1] the target is FnBP purified from S. aureus strain Newman (Staphylococcus aureus). As to the kind of experiment: competition ELISA on FnBP coated at 5 µg/ml; competitor anti-D320-33 F(ab')2 at 100 µg/ml.
The target is the same in experiment [2]. As to the kind of experiment: competition ELISA on FnBP coated at 5 µg/ml; competitor anti-D121-34 F(ab')2 at 100 µg/ml. On the technique in general: ELISA stands for enzyme-linked immunosorbent assay.

With “Human plasma Fn (from UniProt P02751 32-2477) (ligand)”, the concentration of soluble Fn at which F(ab')2 recognition of FnBP was virtually eliminated in experiment [1] and in experiment [2] was 50 µg/mL each time.

These data come from patent EP0971740B1.
